B1: RNA polymerase II-associated protein 1 (Saccharomyces cerevisiae), P38351 (parent)
chain: MSKKQEYIAPIKYQNSLPVPQLPPKLLVYPESPETNADSSQLINSLYIKTNVTNLIQQDEDLGMPVDLMKFPGLLNKLDSKLLYGFDNVKLDKDDRILLRDPRIDRLTKTDISKVTFLRRTEYVSNTIAAHDNTSLKRKRRLDDGDSDDENLDVNHIISRVEGTFNKTDKWQHPVKKGVKMVKKWDLLPDTASMDQVYFILKFMGSASLDTKEKKSLNTGIFRPVELEEDEWISMYATDHKDSAILENELEKGMDEMDDDSHEGKIYKFKRIRDYDMKQVAEKPMTELAIRLNDKDGIAYYKPLRSKIELRRRRVNDIIKPLVKEHDIDQLNVTLRNPSTKEANIRDKLRMKFDPINFATVDEEDDEDEEQPEDVKKESEGDSKTEGSEQEGENEKDEEIKQEKENEQDEENKQDENRAADTPETSDAVHTEQKPEEEKETLQEE
partner: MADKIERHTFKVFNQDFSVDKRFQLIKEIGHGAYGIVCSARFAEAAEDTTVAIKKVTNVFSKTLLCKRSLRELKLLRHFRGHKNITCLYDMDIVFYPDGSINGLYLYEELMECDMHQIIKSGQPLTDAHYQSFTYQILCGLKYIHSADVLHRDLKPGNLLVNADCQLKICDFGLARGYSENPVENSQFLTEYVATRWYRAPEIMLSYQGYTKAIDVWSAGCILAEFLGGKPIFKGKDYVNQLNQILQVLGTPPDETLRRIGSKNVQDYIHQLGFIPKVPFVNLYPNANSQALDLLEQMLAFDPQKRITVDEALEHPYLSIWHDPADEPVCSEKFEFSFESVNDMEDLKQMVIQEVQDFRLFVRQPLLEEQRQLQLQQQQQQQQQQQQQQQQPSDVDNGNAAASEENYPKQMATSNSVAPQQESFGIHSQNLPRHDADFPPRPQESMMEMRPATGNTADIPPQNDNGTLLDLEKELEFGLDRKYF

Variants of: B1
Details: with slt2_yeast SLT2, Q00772

| Variant | effect of a mutation on the interaction |
| --- | --- |
| MSKKQEYIAPIKYQNSLPVPQLPPKLLVYPESPETNADSSQLINSLYIKTNVTNLIQQDEDLGMPVDLMKFPGLLNKLDSKLLYGFDNVKLDKDDRILLRDPRIDRLTKTDISKVTFLRRTEYVSNTIAAHDNTSLKRKRRLDDGDSDDENLDVNHIISRVEGTFNKTDKWQHPVKKGVKMVKKWDLLPDAAFMDQVYFILKFMGSASLDTKEKKSLNTGIFRPVELEEDEWISMYATDHKDSAILENELEKGMDEMDDDSHEGKIYKFKRIRDYDMKQVAEKPMTELAIRLNDKDGIAYYKPLRSKIELRRRRVNDIIKPLVKEHDIDQLNVTLRNPSTKEANIRDKLRMKFDPINFATVDEEDDEDEEQPEDVKKESEGDSKTEGSEQEGENEKDEEIKQEKENEQDEENKQDENRAADTPETSDAVHTEQKPEEEKETLQEE [T191A;S193F] | decreasing interaction |

Reference: IntAct's records for PubMed 21376235
